According to publication PMC10864208 (2024):
“And” between values parts separate entries of the source, which are not always exact repeats. Identical values can stand only once. Values belong to the binder of their own block, whether it stands above or below them. Non-standard residues stand in square brackets, D forms with d. *: point of attachment. FITC = O=C1OC2(c3ccc(O)cc3Oc3cc(O)ccc32)c2ccc(NC(=S)*)cc21; pS = N[C@@H](COP(=O)(O)O)C(=O)O

Assays:
Assay in all cases: FP
[1] = target: T1, MDM2 179-193 (Homo sapiens, UniProt Q00987)
T1 chain: {FITC}-RQRKRHK[pS]DSISLSF-NH2

[2] = target: T2, MDM2 159-173 (Homo sapiens, UniProt Q00987)
T2 chain: {FITC}-SSRRRAI[pS]ETEENSD-NH2

[3] = target: MDM2 159-193 (Homo sapiens, UniProt Q00987, pS186, N-terminal FITC)
[4] = target: T3, MDM2 179-193 (Homo sapiens, UniProt Q00987)
T3 chain: {FITC}-RQRKRHK[pS]DSISLSF-NH2

Sequence of MDM2 159-193 (Q00987 159-193): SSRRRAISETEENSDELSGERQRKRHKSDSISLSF

Kd [1]: 10.8 µM
Kd [2]: > 115 µM
Kd [3]: > 124 µM
Kd [4]: 24.6 µM and ~26.2 µM
B1: 14-3-3σ (protein)
chain: MERASLIQKAKLAEQAERYEDMAAFMKGAVEKGEELSCEERNLLSVAYKNVVGGQRAAWRVLSSIEQKSNEEGSEEKGPEVREYREKVETELQGVCDTVLGLLDSHLIKEAGDAESRVFYLKMKGDYYRYLAEVATGDDKKRIIDSARSAYQEAMDISKKEMPPTNPIRLGLALNFSVFHYEIANSPEEAISLAKTTFDEAMADLHTLSEDSYKDSTLIMQLLRDNLTLWTADNAGEEGGEAPQEPQS

Kd [4]: 11.4 µM
B2: 14-3-3ζ (protein)
chain: MDKNELVQKAKLAEQAERYDDMAACMKSVTEQGAELSNEERNLLSVAYKNVVGARRSSWRVVSSIEQKTEGAEKKQQMAREYREKIETELRDICNDVLSLLEKFLIPNASQAESKVFYLKMKGDYYRYLAEVAAGDDKKGIVDQSQQAYQEAFEISKKEMQPTHPIRLGLALNFSVFYYEILNSPEKACSLAKTAFDEAIAELDTLSEESYKDSTLIMQLLRDNLTLWTSDTQGDEAEAGEGGEN
